Results on ten molecules are retold here after patent US20170306031A1 (NGM BIOPHARMACEUTICALS, published 2017).

Test [1] deals with T1, human GFRAL expressed on cells (human, UniProt Q6UXV0 20-394).
T1 sequence: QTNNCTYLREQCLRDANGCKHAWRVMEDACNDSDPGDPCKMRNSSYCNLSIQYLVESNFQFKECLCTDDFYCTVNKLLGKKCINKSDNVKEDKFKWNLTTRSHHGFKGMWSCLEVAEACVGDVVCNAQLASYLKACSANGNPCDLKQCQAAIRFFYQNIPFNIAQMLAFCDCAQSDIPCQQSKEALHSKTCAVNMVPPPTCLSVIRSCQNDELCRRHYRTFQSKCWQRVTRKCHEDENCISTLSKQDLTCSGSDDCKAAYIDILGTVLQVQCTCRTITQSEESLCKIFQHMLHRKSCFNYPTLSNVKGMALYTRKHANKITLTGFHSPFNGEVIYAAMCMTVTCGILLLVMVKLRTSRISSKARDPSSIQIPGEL
Put plainly: cell-based or functional assay.

Test [2] deals with T2, human GFRAL (analyte in Biacore assays) (human, UniProt Q6UXV0 19-351, limits assumed).
T2 construct: injected in solution over captured antibody; also called hGFRAL
T2 sequence: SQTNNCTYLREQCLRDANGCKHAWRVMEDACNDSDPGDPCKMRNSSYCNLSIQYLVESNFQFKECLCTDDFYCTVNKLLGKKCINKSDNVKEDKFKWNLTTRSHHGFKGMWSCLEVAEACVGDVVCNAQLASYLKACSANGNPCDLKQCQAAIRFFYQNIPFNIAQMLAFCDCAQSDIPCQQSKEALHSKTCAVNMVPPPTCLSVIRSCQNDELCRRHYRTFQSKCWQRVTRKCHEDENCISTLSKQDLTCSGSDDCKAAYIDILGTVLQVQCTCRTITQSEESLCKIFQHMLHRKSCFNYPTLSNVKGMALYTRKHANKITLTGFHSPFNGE
Put plainly: Biacore SPR, antibody captured, human GFRAL injected. The method in brief:
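Purified humanized antibodies captured (~100 RU) on anti-mouse Fc immobilized by amine coupling on a CM5 chip, with a reference flow cell.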

Test [3] concerns the target T1, human GFRAL expressed on cells. Kind of test: cell-based or functional assay. This is another data set of the same source.
In test [4] the target is T3, mouse GFRAL expressed on cells (mouse, UniProt Q6SJE0 20-393).
T3 sequence: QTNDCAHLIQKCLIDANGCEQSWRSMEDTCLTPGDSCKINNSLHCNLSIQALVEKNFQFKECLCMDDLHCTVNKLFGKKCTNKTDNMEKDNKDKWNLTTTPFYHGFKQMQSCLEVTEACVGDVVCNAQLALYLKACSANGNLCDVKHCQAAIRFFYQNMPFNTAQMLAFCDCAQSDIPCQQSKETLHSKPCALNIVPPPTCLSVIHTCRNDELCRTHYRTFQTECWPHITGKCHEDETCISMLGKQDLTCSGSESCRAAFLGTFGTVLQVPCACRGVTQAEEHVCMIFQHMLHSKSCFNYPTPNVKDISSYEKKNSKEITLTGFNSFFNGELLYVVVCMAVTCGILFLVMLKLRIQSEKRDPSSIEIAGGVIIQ
Put plainly: cell-based or functional assay.

In test [5] the target is T1, human GFRAL expressed on cells. Put plainly: cell-based or functional assay. This is another data set of the same source.
Test [6] has the same target. Put plainly: cell-based or functional assay. This is another data set of the same source.
Test [7] shares this target. Kind of test: cell-based or functional assay. This is another data set of the same source.
Test [8] concerns the target T2, human GFRAL (analyte in Biacore assays). Kind of test: Biacore SPR, antibody captured, GFRAL injected. (SPR reads the build-up and loss of mass on a sensor chip optically.)
The target in test [9] is T4, mouse GFRAL (analyte in Biacore assays) (mouse, UniProt Q6SJE0 20-349, limits assumed).
T4 construct: injected in solution over captured antibody
T4 sequence: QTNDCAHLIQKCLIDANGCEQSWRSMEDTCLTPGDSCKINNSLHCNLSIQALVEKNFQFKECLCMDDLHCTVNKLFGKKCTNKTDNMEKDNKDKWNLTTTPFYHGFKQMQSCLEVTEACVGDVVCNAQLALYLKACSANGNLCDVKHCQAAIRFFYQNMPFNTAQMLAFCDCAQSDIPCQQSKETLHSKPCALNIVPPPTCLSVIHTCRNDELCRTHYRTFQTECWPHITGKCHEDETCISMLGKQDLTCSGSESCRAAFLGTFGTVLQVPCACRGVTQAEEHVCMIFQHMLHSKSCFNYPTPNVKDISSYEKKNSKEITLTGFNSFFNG
Kind of test: Biacore SPR, antibody captured, GFRAL injected.

Like-named read-outs stand apart in the source and are kept apart here.

B1: humanized anti-GFRAL antibody HC-375d/LC-375j (antibody, IgG1, V domains shown)
VH: QVQLVQSGAEVKKPGSSVKVSCKASGYTFTDYYINWVRQAPGQGLEWIGRIYPGNGNTYHNEKFKGRATLTADKSTSTAYMELSSLRSEDTAVYYCAREGLYYDYDRYFDYWGQGTLVTVSS
VL: DIVLTQSPLSLPVTLGQPASISCRASESVDTYGNSFMHWYQQRPGQSPRLLIYLASNLESGVPDRFSGSGSRTDFTLKISRVEAEDVGVYYCHQNNEDPPAFGGGTKVEIK
notes: humanized 5F12
By Kd is commonly meant a measure of binding affinity in units of concentration. High values mean lower affinity, low ones higher affinity. In the case of B1, the “IC50, ELK1-luciferase reporter (hGFRAL/hRET)” value (“IC50 … (hGFRAL/hRET)” below) in test [1] is 3.11 nM. The molecule further had a Kd in [2] of 0.046 nM.

B2: humanized anti-GFRAL antibody HC-375e/LC-375j (antibody, IgG1, V domains shown)
VH: QVQLVQSGAEVKKPGSSVKVSCKASGYTFTDYYINWVRQAPGQGLEWMGRIYPGNGNTYHNEKFKGRATLTADESTSTAYMELSSLRSEDTAVYYCAREGLYYDYDRYFDYWGQGTLVTVSS
VL: DIVLTQSPLSLPVTLGQPASISCRASESVDTYGNSFMHWYQQRPGQSPRLLIYLASNLESGVPDRFSGSGSRTDFTLKISRVEAEDVGVYYCHQNNEDPPAFGGGTKVEIK
notes: humanized 5F12
For B2, in test [1], the “IC50 … (hGFRAL/hRET)” value turned out to be 4.01 nM. In addition, the Kd in [2] is 0.048 nM.

B3: humanized anti-GFRAL antibody HC-375d/LC-375i (antibody, IgG1, V domains shown)
VH: QVQLVQSGAEVKKPGSSVKVSCKASGYTFTDYYINWVRQAPGQGLEWIGRIYPGNGNTYHNEKFKGRATLTADKSTSTAYMELSSLRSEDTAVYYCAREGLYYDYDRYFDYWGQGTLVTVSS
VL: DVVLTQSPLSLPVTLGQPASISCRASESVDTYGNSFMHWFQQRPGQSPRLLIYLASNLESGVPDRFSGSGSGTDFTLKISRVEAEDVGVYYCHQNNEDPPAFGGGTKVEIK
notes: humanized 5F12
With B3, the “IC50 … (hGFRAL/hRET)” value in test [1] came to 2.75 nM. In addition, the equilibrium dissociation constant (Kd) in [2] stood at 0.062 nM.

B4: humanized anti-GFRAL antibody HC-375h/LC-375j (antibody, IgG1, V domains shown)
VH: QVQLVQSGAEVKKPGASVKVSCKASGYTFTDYYINWVRQAPGQRLEWIARIYPGNGNTYHNEKFKGRATLTRDKSASTAYMELSSLRSEDTAVYYCAREGLYYDYDRYFDYWGQGTLVTVSS
VL: DIVLTQSPLSLPVTLGQPASISCRASESVDTYGNSFMHWYQQRPGQSPRLLIYLASNLESGVPDRFSGSGSRTDFTLKISRVEAEDVGVYYCHQNNEDPPAFGGGTKVEIK
notes: humanized 5F12
Turning to B4, the “IC50 … (hGFRAL/hRET)” value in [1] turned out to be 7.29 nM. Besides, binding in test [2] was put at a Kd of 0.06 nM.

B5: antibody designated 3P10 (antibody, V domains shown)
VH: QIQLVQSGPELKKPGETVKISCKASGYTFTDYGVIWVKQAPGKALKWMGWINTYTGEPTYADDLKGRFAFSLETSASSASLQINNLKNEDTATYFCARRYGPEDIDYWGQGTTLTVSS
VL: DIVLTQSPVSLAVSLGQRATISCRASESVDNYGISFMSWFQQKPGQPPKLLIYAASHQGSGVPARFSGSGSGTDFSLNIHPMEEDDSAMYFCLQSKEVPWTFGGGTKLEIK
notes: mouse hybridoma monoclonal; also called 3P10 Hybridoma; m3P10
For orientation: koff means a measure of how fast the partners let go of each other. High values mean a short-lived complex, low ones a long-lived complex. B5: the “IC50 … (hGFRAL/hRET)” value was 4.09 nM in [3] and 4.02 nM in test [6]. In addition, in test [4], the “IC50, ELK1-luciferase reporter (mGFRAL/mRET)” value came to 1.03 nM. The “IC50, ERK phosphorylation in U2OS hGFRAL/hRET cells” value (“IC50 … in U2OS hGFRAL/hRET cells” for short) stood at 0.08 nM in [5] and 5.46 nM in test [7]. In addition, the Kd was less than 0.1 nM in test [8], less than 0.1 nM in test [9] and less than 0.01 nM in test [2]. In addition, the koff in [8] and in [9] was approximately 1e-05 s⁻¹ throughout.

B6: antibody designated 5F12 (antibody, V domains shown)
VH: QVQLKQSGTELVRPGASVKLSCKASGYTFTDYYINWVKQRPGQGLEWIARIYPGNGNTYHNEKFKGKATLTAEKSSSTAYMQLSSLTSEDSAVYFCAREGLYYDYDRYFDYWGQGTALTVSS
VL: NIVLTQSPASLAVSLGQRATISCRASESVDTYGNSFMHWYQQKPGQPPKLLIYLASNLESGVPARFSGSGSRTDFTLTIDPVEADDAATYYCHQNNEDPPAFGGGTKLEIK
notes: mouse hybridoma monoclonal; also called 5F12 Hybridoma
With B6, the “IC50 … (hGFRAL/hRET)” value in test [3] is 0.834 nM; in [1] it was 5.4 nM. Also, the “IC50, ELK1-luciferase reporter (mGFRAL/mRET)” value in test [4] worked out at 6.28 nM. For the same molecule, in [5], the “IC50 … in U2OS hGFRAL/hRET cells” value amounted to 0.06 nM. For the same molecule, the Kd in test [8] was less than 0.1 nM; in [9], 2.2 nM; in [2] it was 0.038 nM. Further, the koff is approximately 1e-05 s⁻¹ in test [8] and 0.0009 s⁻¹ in test [9].

B7: humanized anti-GFRAL antibody HC-344a/LC-344c (antibody, IgG1, V domains shown)
VH: QVQLVQSGAEVKKPGSSVKVSCKASGYTFTDYGVIWVRQAPGQGLEWMGWINTYTGEPTYADDLKGRVTITADESTSTAYMELSSLRSEDTAVYYCARRYGPEDIDYWGQGTTVTVSS
VL: DIVLTQSPLSLPVTLGQPASISCRASESVDNYGISFMSWFQQRPGQSPRLLIYAASHQGSGVPDRFSGSGSGTDFTLKISRVEAEDVGVYFCLQSKEVPWTFGGGTKVEIK
notes: humanized 3P10
Take B7: the “IC50 … (hGFRAL/hRET)” value in [6] stood at 7.26 nM. Further, the “IC50 … in U2OS hGFRAL/hRET cells” value in [7] worked out at 5.13 nM. The molecule further had a Kd in test [2] of 0.012 nM.

B8: humanized anti-GFRAL antibody HC-344h/LC-344c (antibody, V domains shown)
VH: QIQLVQSGAEVKKPGSSVKVSCKASGYTFTDYGVIWVRQAPGQGLKWMGWINTYTGEPTYADDLKGRVTFTADESTSTAYMELSSLRSEDTAVYYCARRYGPEDIDYWGQGTTVTVSS
VL: DIVLTQSPLSLPVTLGQPASISCRASESVDNYGISFMSWFQQRPGQSPRLLIYAASHQGSGVPDRFSGSGSGTDFTLKISRVEAEDVGVYFCLQSKEVPWTFGGGTKVEIK
notes: humanized 3P10
On to B8, for which, in [6], the “IC50 … (hGFRAL/hRET)” value came out at 29.4 nM. Besides, the “IC50 … in U2OS hGFRAL/hRET cells” value in test [7] was determined as 15.1 nM. Also, the Kd in [2] is less than 0.01 nM.

B9: humanized anti-GFRAL antibody HC-344a/LC-344h (antibody, IgG1, V domains shown)
VH: QVQLVQSGAEVKKPGSSVKVSCKASGYTFTDYGVIWVRQAPGQGLEWMGWINTYTGEPTYADDLKGRVTITADESTSTAYMELSSLRSEDTAVYYCARRYGPEDIDYWGQGTTVTVSS
VL: DVVLTQSPLSLPVTLGQPASISCRASESVDNYGISFMSWFQQRPGQSPRLLIYAASHQGSGVPDRFSGSGSGTDFTLKISRVEAEDVGVYFCLQSKEVPWTFGGGTKVEIK
notes: humanized 3P10
Regarding B9, the “IC50 … (hGFRAL/hRET)” value in test [6] amounted to 4.63 nM. The “IC50 … in U2OS hGFRAL/hRET cells” value in test [7] is 5.02 nM. Also, the Kd in test [2] is less than 0.01 nM.

B10: humanized anti-GFRAL antibody HC-344h/LC-344h (antibody, IgG1, V domains shown)
VH: QIQLVQSGAEVKKPGSSVKVSCKASGYTFTDYGVIWVRQAPGQGLKWMGWINTYTGEPTYADDLKGRVTFTADESTSTAYMELSSLRSEDTAVYYCARRYGPEDIDYWGQGTTVTVSS
VL: DVVLTQSPLSLPVTLGQPASISCRASESVDNYGISFMSWFQQRPGQSPRLLIYAASHQGSGVPDRFSGSGSGTDFTLKISRVEAEDVGVYFCLQSKEVPWTFGGGTKVEIK
notes: humanized 3P10
On to B10, for which the “IC50 … (hGFRAL/hRET)” value in test [6] is 5.7 nM. In addition, the “IC50 … in U2OS hGFRAL/hRET cells” value in [7] turned out to be 2.18 nM. In test [2], this molecule had a Kd of less than 0.01 nM.
